Experimental data as given in patent US20100291677A1.

Experiments:
Assay in all cases: cell-based or functional assay
TGF-beta = TGF-beta (UniProt P01137)
[1] = target: FSTL1 (Follistatin-like 1) protein (human) (UniProt Q12841)
[2] = target: MCP1 (monocyte chemoattractant protein-1) protein (human) (UniProt P13500)
[3] = target: TSP1 (thrombospondin-1) protein (human) (UniProt P07996)
IL-10 protein = IL-10 protein (UniProt P22301)
[4] = target: IL-13Ra2 (interleukin 13 alpha 2 receptor) protein (human) (UniProt Q14627)
UniProt Q14627, sequence (Q14627 27-380 limits assumed): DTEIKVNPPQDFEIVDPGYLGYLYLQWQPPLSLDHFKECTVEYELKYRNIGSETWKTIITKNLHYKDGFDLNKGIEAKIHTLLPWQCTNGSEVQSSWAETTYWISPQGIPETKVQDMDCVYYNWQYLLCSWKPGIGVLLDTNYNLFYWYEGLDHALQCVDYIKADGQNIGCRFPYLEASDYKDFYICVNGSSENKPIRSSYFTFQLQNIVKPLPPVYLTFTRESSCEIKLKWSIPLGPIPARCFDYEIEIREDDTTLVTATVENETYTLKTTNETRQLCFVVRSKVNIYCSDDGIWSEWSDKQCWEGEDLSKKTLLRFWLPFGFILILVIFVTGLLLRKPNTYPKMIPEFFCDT

UniProt Q12841, sequence (Q12841 21-308 limits assumed): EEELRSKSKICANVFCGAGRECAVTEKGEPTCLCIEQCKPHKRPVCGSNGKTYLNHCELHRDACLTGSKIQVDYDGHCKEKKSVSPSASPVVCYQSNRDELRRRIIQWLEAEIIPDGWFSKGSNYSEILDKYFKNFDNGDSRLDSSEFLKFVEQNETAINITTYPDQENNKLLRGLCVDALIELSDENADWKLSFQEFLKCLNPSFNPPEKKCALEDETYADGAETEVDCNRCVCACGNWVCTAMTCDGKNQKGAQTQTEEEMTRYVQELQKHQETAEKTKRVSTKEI
UniProt P13500, sequence (P13500 24-99 limits assumed): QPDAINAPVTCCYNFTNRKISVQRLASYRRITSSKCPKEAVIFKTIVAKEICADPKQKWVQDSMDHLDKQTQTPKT
UniProt P01137, sequence (P01137 279-390 limits assumed): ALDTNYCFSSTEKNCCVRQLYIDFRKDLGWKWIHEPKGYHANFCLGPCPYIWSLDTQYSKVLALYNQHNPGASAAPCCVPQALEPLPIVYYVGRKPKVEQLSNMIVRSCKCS
UniProt P22301, sequence (P22301 19-178 limits assumed): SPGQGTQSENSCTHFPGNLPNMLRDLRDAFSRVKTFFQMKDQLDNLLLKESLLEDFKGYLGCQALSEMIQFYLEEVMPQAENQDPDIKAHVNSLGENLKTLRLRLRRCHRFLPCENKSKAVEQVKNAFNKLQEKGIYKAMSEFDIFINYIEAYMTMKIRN
UniProt P07996, sequence (P07996 19-1170 limits assumed): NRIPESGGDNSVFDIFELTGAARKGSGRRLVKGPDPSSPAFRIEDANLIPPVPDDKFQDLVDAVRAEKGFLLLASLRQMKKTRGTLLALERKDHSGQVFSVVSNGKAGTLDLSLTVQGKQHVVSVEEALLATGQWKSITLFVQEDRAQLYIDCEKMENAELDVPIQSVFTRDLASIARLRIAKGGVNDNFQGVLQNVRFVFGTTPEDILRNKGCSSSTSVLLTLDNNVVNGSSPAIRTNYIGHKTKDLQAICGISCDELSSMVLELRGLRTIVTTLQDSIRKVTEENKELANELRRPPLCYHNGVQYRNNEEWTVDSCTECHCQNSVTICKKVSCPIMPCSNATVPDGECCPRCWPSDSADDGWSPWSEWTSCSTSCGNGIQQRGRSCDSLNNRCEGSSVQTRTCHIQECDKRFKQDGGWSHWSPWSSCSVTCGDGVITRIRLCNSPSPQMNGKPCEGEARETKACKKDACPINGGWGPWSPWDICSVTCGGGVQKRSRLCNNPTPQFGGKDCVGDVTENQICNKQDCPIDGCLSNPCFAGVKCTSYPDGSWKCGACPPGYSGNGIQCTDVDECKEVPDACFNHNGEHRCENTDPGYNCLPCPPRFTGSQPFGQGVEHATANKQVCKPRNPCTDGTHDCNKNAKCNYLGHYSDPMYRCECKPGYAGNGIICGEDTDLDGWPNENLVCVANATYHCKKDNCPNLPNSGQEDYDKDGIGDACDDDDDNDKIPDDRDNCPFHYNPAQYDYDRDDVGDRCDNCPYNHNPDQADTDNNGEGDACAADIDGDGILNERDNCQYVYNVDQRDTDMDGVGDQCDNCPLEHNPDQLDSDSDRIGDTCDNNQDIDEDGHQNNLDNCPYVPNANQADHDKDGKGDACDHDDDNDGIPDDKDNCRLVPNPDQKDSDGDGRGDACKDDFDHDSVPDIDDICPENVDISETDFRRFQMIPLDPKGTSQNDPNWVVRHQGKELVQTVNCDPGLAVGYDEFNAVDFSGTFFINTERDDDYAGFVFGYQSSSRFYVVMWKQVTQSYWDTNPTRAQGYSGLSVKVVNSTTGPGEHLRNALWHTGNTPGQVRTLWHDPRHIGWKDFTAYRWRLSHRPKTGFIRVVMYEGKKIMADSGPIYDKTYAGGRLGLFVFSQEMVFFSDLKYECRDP

## anti-TGF-beta1 antibody (R&D #MAB246)
TGF-beta
  expression level of FoxP3 protein in CD4+ cells, F3 clone with antibody (FIG. 6): 23.4
  expression level of FoxP3 protein in CD4+ cells, F3 clone with antibody (FIG. 7): 30.6
  expression level of FoxP3 protein in CD4+CD25+ cells, F3 clone with antibody: 28.9
  expression level of FoxP3 protein in CD4+CD25- cells, F3 clone with antibody: 28.4

## anti-FSTL1 antibody (R&D #MAB1694)
[1]
  decrease in cellular infiltration capability of F3 cells (matrigel Transwell, antibody at 1 ug/ml): 45%
  expression level of FoxP3 protein in CD4+ cells, F3 clone with antibody (FIG. 6; 35.34 without): 14.9
  expression level of FoxP3 protein in CD4+ cells, F3 clone with antibody (FIG. 7; 38.39 without): 34.7
  expression level of FoxP3 protein in CD4+CD25+ cells, F3 clone with antibody: 29.9
  expression level of FoxP3 protein in CD4+CD25- cells, F3 clone with antibody: 32.6

## anti-MCP1 antibody (BD PharMingen #551226)
[2]
  FoxP3 protein expression in CD8+ cells, F3 cells (FIG. 13): 12
  decrease in cellular infiltration capability of F3 cells (matrigel Transwell, antibody at 1 ug/ml): 45%
  expression level of FoxP3 protein in CD4+ cells, F3 clone with antibody (FIG. 6; 35.34 without): 16.3
  expression level of FoxP3 protein in CD4+ cells, F3 clone with antibody (FIG. 7; 38.39 without): 22.9
  expression level of FoxP3 protein in CD4+CD25+ cells, F3 clone with antibody: 22.1
  expression level of FoxP3 protein in CD4+CD25- cells, F3 clone with antibody: 19
  expression of FoxP3 protein enhanced by the culture supernatant of B11 clone (FIG. 8): 4.69

## anti-TSP1 antibody (ABCAM #ab3131)
[3]
  FoxP3 protein expression in CD8+ cells, F3 cells (FIG. 13): 5.28
  expression level of FoxP3 protein in CD4+ cells, F3 clone with antibody (FIG. 6; 35.34 without): 9.26
  expression level of FoxP3 protein in CD4+ cells, F3 clone with antibody (FIG. 7; 38.39 without): 21.4
  expression level of FoxP3 protein in CD4+CD25+ cells, F3 clone with antibody: 27.8
  expression level of FoxP3 protein in CD4+CD25- cells, F3 clone with antibody: 16.6

## anti-IL-10 antibody (R&D #MAB2171)
IL-10 protein
  expression level of FoxP3 protein in CD4+ cells, F3 clone with antibody (FIG. 6): 11.4
  expression level of FoxP3 protein in CD4+ cells, F3 clone with antibody (FIG. 7): 30.9
  expression level of FoxP3 protein in CD4+CD25+ cells, F3 clone with antibody: 29.9
  expression level of FoxP3 protein in CD4+CD25- cells, F3 clone with antibody: 28.1

## anti-IL-13Ra2 antibody (R&D #AF146)
[4]
  FoxP3 protein expression in CD8+ cells, B11 cells (FIG. 14): 10.2
  expression level of FoxP3 protein in CD4+ cells, F3 clone with antibody (FIG. 6): 11.9
  expression of FoxP3 protein enhanced by the culture supernatant of B11 clone (FIG. 8; 23.69 without antibody): 7.6
